We go through four molecules from patent US20250314643A1, “FLUORESCENT COMPLEXES COMPRISING TWO RHODAMINE DERIVATIVES AND A NUCLEIC ACID MOLECULE” (CENTRE NATIONAL DE LA RECHERCHE SCIENTIFIQUE, priority 2019, published 2025).

The nature of series [1]: Fluorescence Correlation Spectroscopy (FCS) analysis of the fluoromodules. It is filed as physicochemical.
The nature of series [2]: Affinity measurements (Kd, fluorescence titration of Gemini-561 with RNA). In kind it is binding. The following applies: for Kd: 40 mM potassium phosphate pH 7.5, 100 mM KCl, 1 mM MgCl2, 0.05% Tween 20, 100 nM (SRB-2) or 25 nM (4C10) Gemini-561. As for the experimental part:
The Kd value can be obtained by measuring the fluorescence intensity of the fluorophore in aqueous medium with increasing amount of the said nucleic acid. The plot of the fluorescence intensity versus the concentration of the said nucleic acid will provide the Kd value after fitting with the proper equation (example: Hill equation).
The fluorescence was measured on microplate reader (ex/em 580/620 nm, SpectraMax iD3, Molecular Devices).

Series [3] in a line: Fluorescence measurement on purified RNA (Gemini-561 activation capacity). In kind it is biochemical. The conditions noted are these: 500 nM RNA, 50 nM Gemini-561, ex/em 560/600 nm. As for the experimental part: FIG. 6A represents Gemini-561 activation capacity of the parental SRB-2 and the evolved 4C10 variant. 500 nM of RNAs were incubated with 50 nM of Gemini-561 and the fluorescence was measured at À ex/em=560/600 nm.
FIG. 7A represents the fluorogenic capacity of SRB-2 and its evolved forms 4C10 and o-Coral. 500 nM of RNAS were incubated With 50 nM of Gemini-561 and the fluorescence was measured at X ex/em=560/600 nm. The values are the mean of 3 independent experiments, each measurement being shown as an open circle. The error bars correspond to ±1 standard deviation.
FIG. 10B represents Contribution of the dimerization and 736 the mutations to o-Coral functionality. SRB-2 aptamer was used as scaffold either in its monomeric 737 (m) or dimeric (d) form containing o-Coral linker. Indicated mutations were then implemented and the 738 different constructs tested as above.
FIG. 10C represents the identification of interacting regions. […]
1 μM purified RNA was heated for 1 min at 90° C. and cooled at 4° C. for 1 min. […] The mixture was then incubated for 10 min at 25° C. prior to measuring the fluorescence at 25° C. 011 a real-time thermocycler (ex/em 575/602 nm, MX 3005P, Agilent) or on microplate reader (ex/em 560/600 nm, SpectraMax iD3, Molecular Devices).

`CN(C)c1ccc2c(-c3ccccc3C(=O)[O-])c3ccc(N(C)C)cc3[o+]c2c1` [Tetramethylrhodamine]: in series [1] (fluorogen 200 nM, aptamer 1 μM), the “Size (hydrodynamic diameter of fluorescent specie)” value was determined as 1 nm and the “τcorr (correlation time)” value was determined as 0.032 ms. Also, the “Brightness with respect to one molecule of the standard” value in series [1] (standard tetramethylrhodamine for o-Coral (532 nm excitation), fluorescein for Broccoli and Corn) was found to be 1.

B1: SRB-2: parental RNA aptamer previously developed to interact with sulforhodamine B (nucleic acid)
chain: GGGAGACAGCUAGAGUACGGAACCUCGCUUCGGCGAUGAUGGACAGGUUCCGACACGAGCACAGUGUAC
modifications: listed as RNA, chemistry not given here
With B1, the Kd in series [2] was approximately 441 nM. The “capacity to turn on Gemini-561 fluorescence” value in series [3] was “poor”.

B2: 4C10: duplicated SRB-2 variant RNA aptamer displaying 6 point mutations (nucleic acid)
chain: AGAACCCCGCUUCGGCGGUGAUGGAGAGGCGCAAGGUUAACCGCCUCAGGUUCCNNNNNNNNNNNNNNNNNNNNNNNNNNNNNNNNNNNNNNNNNNNNNNNNNNNNNNNNNNNNGGGGCCUCGCUUCGGCGAUGAUGGAGAGGCGCAAGGUUAACCGCCUCAGGUUCU
modifications: fluorophore binding aptamers; (55)..(72) N represents A, U, G or C; (73)..(114) N represents A, U, G or C or is absent
notes: duplicated SRB-2 variant RNA aptamer displaying 6 point mutations
As for B2, the Kd in series [2] is approximately 73 nM. Moreover, the “capacity to turn on Gemini-561 fluorescence” value in series [3] is given as “an order of magnitude more fluorescent”.

B3: o-Coral: light-up RNA aptamer, 4C10 derivative with 6-nucleotide long linker (nucleic acid)
chain: GGGAGACAGCUAGAGUACAGGAACCCCGCUUCGGCGGUGAUGGAGAGGCGCAAGGUUAACCGCCUCAGGUUCCGGUGACGGGGCCUCGCUUCGGCGAUGAUGGAGAGGCGCAAGGUUAACCGCCUCAGGUUCUGACACGAGCACAGUGUAC
modifications: fluorophore binding aptamers
notes: light-up RNA aptamer, 4C10 derivative with 6-nucleotide long linker
For the molecule B3, the “fluorogenicity and affinity for Gemini-561 compared with 4C10” value in series [2] (6-nucleotide linker derivative of 4C10) is “conserved both fluorogenicity and affinity”.

For orientation: Kd means a measure of binding affinity in units of concentration. A lower Kd goes with tighter binding.
